This is an account of results in publication PMC4871718 (Nature chemical biology, 2016).

The target of one experiment is T1, CIB1-CreC (UniProt Q8GY61).
T1 sequence (Q8GY61 whole entry, looked up): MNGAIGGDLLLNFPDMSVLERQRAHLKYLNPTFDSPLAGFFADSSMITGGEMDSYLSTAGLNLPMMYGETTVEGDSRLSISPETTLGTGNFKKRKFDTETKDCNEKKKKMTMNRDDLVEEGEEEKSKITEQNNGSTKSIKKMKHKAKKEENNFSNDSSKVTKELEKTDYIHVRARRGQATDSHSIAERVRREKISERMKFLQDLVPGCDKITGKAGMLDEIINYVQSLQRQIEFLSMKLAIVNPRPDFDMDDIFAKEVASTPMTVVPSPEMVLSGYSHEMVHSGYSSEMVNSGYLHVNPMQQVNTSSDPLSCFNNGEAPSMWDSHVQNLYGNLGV

The target in the next experiment is LexABD-CRY2(535) (Arabidopsis thaliana, UniProt Q96524 1-535). Briefly: two-hybrid.

Take “CRY2(L348F)-CreN (from UniProt Q96524 1-612; P06956 1-104)”: in the experiment with CIB1-CreC, the Cre recombination with extended 24 hour illumination was greater than 50%.

B1: VP16-CIB1 (natural protein, UniProt Q8GY61 1-335, looked up)
chain: MNGAIGGDLLLNFPDMSVLERQRAHLKYLNPTFDSPLAGFFADSSMITGGEMDSYLSTAGLNLPMMYGETTVEGDSRLSISPETTLGTGNFKKRKFDTETKDCNEKKKKMTMNRDDLVEEGEEEKSKITEQNNGSTKSIKKMKHKAKKEENNFSNDSSKVTKELEKTDYIHVRARRGQATDSHSIAERVRREKISERMKFLQDLVPGCDKITGKAGMLDEIINYVQSLQRQIEFLSMKLAIVNPRPDFDMDDIFAKEVASTPMTVVPSPEMVLSGYSHEMVHSGYSSEMVNSGYLHVNPMQQVNTSSDPLSCFNNGEAPSMWDSHVQNLYGNLGV
On to B1, for which the “fold reduction in dark activity against LexABD-CRY2PHR” value with LexABD-CRY2(535) is 26 fold.
